Experimental data as given in PMC2680719.

Biological target: m33 T cell receptor (high-affinity CDR3α mutant of 2C, displayed on 58−/− T cell hybridoma cells) (mouse)
Experiment: flow cytometry on cells

percent of cells positive for tetramer: 84%
Substance: SIYRYYGL/K^b tetramer (biotinylated SIY/K^b monomers on streptavidin:phycoerythrin) (from UniProt P01887 21-119) (peptide-MHC)
